The record followed here is article PMC8149476 (Cell Reports Medicine, 2021).

Assay [1] has as its target human NOTCH3 NRR_AviHis recombinant protein (Homo sapiens, UniProt Q9UM47). Kind of assay: SPR. In general terms: Surface plasmon resonance follows binding to a sensor surface in real time, without labels.
Assay [2] has as its target human NOTCH3 receptor expressed on U2OS cells (U2OS-hN3) (human, UniProt Q9UM47). Put plainly: ELISA. On the technique in general: ELISA stands for enzyme-linked immunosorbent assay.
In assay [3] the target is mouse NOTCH3 (mN3) expressed on U2OS cells (U2OS-mN3) (mouse, UniProt Q61982). Kind of assay: ELISA.
mouse NOTCH3 (mN3) expressed on U2OS cells (U2OS-mN3), sequence (Q61982 40-2318): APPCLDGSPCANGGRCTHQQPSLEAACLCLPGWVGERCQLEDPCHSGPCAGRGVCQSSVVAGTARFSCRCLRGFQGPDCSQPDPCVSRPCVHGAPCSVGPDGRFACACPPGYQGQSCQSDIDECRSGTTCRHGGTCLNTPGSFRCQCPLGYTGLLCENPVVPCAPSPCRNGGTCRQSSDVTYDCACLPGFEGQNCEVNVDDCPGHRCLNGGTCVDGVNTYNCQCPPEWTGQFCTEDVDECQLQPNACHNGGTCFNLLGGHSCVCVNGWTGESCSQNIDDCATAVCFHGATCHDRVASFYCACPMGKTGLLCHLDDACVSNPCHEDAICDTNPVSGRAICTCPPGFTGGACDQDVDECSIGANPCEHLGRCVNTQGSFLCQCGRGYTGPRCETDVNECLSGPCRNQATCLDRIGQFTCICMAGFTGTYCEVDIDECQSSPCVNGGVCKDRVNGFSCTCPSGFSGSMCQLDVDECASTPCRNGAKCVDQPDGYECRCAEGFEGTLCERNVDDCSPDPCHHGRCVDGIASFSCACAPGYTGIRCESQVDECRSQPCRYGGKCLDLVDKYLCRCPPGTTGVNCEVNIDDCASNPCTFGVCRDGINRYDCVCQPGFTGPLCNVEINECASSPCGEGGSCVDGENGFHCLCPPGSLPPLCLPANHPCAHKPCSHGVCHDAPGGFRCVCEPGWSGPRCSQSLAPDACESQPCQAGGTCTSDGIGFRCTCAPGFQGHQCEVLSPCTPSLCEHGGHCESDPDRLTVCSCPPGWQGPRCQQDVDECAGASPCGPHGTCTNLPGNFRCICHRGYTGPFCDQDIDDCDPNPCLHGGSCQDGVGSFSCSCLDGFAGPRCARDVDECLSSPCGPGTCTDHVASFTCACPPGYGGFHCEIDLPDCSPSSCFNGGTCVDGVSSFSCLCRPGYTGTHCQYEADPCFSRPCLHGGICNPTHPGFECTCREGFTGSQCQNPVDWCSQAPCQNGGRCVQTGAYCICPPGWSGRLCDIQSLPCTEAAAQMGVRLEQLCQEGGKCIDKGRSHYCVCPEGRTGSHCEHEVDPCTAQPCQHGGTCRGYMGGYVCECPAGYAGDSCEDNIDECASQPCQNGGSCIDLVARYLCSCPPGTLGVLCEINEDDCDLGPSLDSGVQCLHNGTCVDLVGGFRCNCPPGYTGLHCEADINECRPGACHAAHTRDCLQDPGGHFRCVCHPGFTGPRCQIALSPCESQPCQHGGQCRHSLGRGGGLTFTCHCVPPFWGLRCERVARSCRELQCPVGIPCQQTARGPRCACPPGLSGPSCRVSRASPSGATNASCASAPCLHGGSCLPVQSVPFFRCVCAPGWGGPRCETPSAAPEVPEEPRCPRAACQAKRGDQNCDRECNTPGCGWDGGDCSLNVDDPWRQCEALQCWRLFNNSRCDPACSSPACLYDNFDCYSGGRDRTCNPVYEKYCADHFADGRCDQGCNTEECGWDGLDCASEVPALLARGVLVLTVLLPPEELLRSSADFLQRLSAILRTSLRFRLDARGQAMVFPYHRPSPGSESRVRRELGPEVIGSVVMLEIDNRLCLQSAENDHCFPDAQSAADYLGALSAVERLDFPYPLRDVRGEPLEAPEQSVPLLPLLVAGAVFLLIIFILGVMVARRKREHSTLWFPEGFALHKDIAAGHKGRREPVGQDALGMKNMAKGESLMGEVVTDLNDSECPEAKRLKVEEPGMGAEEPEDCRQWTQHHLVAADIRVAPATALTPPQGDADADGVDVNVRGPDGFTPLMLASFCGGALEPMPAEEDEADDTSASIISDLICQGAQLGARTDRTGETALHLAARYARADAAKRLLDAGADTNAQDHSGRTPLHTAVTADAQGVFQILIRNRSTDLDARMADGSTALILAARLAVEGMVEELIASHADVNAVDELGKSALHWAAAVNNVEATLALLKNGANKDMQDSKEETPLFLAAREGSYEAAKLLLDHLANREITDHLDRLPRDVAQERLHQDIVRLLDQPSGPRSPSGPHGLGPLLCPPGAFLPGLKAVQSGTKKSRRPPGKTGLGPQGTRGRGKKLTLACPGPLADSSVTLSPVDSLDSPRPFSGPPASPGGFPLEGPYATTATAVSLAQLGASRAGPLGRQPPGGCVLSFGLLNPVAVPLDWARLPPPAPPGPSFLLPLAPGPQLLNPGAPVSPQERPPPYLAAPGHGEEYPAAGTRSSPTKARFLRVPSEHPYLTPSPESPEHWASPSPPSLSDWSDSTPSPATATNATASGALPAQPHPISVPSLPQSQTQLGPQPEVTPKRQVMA
In assay [4] the target is human NOTCH1 receptor expressed on U2OS cells (U2OS-hN1) (Homo sapiens, UniProt P46531). Kind of assay: ELISA.
Assay [5] has as its target mouse NOTCH1 receptor expressed on U2OS cells (U2OS-mN1) (Mus musculus, UniProt Q01705). Put plainly: ELISA.
Assay [6] deals with NOTCH3 endogenous on MDA-MB-468 cells (human (endogenous in MDA-MB-468), UniProt Q9UM47). Kind of assay: immunostaining of cells or tissue.
NOTCH3 endogenous on MDA-MB-468 cells, sequence (Q9UM47 40-2321): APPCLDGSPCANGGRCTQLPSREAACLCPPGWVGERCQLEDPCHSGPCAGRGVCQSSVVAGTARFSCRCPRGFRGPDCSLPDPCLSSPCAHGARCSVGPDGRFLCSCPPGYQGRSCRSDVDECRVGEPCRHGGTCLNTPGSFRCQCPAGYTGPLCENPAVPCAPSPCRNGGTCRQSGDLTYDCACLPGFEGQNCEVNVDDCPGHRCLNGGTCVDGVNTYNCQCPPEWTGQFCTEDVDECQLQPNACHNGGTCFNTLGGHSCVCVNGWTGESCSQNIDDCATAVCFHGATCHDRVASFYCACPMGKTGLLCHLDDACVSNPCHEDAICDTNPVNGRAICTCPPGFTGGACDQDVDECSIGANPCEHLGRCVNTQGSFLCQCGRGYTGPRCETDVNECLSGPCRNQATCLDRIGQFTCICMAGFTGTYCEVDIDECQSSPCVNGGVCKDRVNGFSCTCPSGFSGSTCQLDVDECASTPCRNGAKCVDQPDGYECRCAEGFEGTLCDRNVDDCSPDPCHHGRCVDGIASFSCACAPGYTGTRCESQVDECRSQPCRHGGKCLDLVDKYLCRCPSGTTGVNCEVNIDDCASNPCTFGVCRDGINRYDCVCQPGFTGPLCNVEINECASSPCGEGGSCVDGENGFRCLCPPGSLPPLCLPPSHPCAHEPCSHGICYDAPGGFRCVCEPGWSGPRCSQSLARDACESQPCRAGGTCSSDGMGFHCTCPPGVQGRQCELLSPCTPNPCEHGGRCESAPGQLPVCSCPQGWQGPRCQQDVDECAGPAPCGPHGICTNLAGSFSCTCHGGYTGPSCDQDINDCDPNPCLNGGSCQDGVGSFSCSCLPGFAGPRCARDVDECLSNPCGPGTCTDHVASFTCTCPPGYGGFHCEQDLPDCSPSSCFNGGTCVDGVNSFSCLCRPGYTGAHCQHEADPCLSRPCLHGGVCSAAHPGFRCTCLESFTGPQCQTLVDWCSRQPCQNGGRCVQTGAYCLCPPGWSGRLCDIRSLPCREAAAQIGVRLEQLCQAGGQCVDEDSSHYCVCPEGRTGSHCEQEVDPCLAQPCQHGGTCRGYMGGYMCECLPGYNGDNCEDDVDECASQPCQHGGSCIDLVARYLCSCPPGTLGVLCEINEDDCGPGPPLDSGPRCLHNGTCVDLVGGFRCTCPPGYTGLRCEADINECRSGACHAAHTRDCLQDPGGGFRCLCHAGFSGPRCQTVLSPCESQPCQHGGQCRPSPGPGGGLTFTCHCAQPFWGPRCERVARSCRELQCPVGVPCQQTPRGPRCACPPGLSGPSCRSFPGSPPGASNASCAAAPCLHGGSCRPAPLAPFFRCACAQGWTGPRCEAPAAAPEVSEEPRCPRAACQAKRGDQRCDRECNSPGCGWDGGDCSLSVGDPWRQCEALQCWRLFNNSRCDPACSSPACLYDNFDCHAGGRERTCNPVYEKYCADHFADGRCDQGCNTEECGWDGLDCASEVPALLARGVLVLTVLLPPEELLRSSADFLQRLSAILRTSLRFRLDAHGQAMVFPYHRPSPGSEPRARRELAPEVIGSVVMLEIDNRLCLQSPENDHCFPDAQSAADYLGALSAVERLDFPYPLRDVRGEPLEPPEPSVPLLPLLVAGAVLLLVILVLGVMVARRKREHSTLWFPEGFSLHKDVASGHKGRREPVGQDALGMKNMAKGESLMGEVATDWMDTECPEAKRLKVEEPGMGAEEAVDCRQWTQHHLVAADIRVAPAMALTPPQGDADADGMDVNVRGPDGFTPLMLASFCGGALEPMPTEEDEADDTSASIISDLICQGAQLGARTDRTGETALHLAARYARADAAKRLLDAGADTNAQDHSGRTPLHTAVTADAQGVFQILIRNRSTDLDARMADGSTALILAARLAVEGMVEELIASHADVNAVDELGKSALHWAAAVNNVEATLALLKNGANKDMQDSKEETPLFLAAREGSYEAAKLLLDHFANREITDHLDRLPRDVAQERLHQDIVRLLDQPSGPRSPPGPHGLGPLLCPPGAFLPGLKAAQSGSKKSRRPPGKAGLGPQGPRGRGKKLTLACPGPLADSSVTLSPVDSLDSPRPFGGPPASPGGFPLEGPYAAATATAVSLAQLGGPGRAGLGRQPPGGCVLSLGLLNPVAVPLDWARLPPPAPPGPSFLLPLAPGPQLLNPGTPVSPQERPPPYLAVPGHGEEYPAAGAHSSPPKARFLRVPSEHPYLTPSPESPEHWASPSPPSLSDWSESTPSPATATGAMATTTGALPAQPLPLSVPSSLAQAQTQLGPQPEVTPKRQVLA

human NOTCH3 receptor expressed on U2OS cells (U2OS-hN3), sequence (Q9UM47 40-2321): as above

B1: anti-NOTCH3 inhibitory (anti-N3(i)) mAb clone 75 (antibody, V domains shown)
VH: EVQLVESGGGLVQPGGSLRLSCAASGYAFTDYWMTWVRQAPGKGLEWVAEISPNSGGTNFNEKFKGRFTISVDNAKNSLYLQMNSLRAEDTAVYYCARGEIRYNWFAYWGQGTLVTVSS
VL: DIQMTQSPSSLSASVGDRVTITCKASQNVGNNIAWYQQKPGKAPKLLIYYASNRYTGVPSRFSGSGYGTDFTLTISSLQPEDFATYYCQRLYNSPFTFGGGTKVEIK
As to B1, the binding result in assay [1] was “binds”; in assay [2], “binds”; in assay [3], “no binding”; in assay [4] it was “no binding”; in assay [5], “no binding”; in assay [6], “binds”.

B2: Anti-N3(i)-vc0101 ADC (antibody, V domains shown)
VH: B1 VH
VL: B1 VL
As to B2, the binding result in assay [2] is recorded as “binds”.
